Experiment: label from the status in PepcDB records

| Sequence | protein production |
| --- | --- |
| MHTDTERCVRAVQSKDARFDGWFFTAVLTTGIYCRPSCPVVPPKPGNMTFYPSAAACQQAGFRACKRCRPDTSPGSPEWNRRADLTARAMRLIADGVVDREGVPGLASRLGYSTRQVERQLLAELGAGPLALARAQRAQTARLLIETTPLPMADIAFAAGFSSIRTFNDTVREVYALSPSELRTRAPRNRRAATAPGALSLRLPFRAPLNPDNLFGHLAATAVPGVEEWRDGAYRRTLRLPYGHGIVALTPNPDHIACRLTLSDLRDLTVAISRCRRLLDLDADPTAIDDQLRADPLLAPLVDKAPGRRVPRTVDEAEFAVRAVLGQQVSTAAARTHAARLVTAHGDPVDDPEGGLTHLFPSTEALAAVDPETLAMPRTRRTTFTTLVAHLADGSVNPGVESDWAETRARLLALPGFGPWTADVIAMRALGDPDAFLPTDLGIRRAAAELGLPSTPAALTARAAAWRPWRAYAVQYLWATDDHPINFLPV | failed |
| MHTDVNALFAALWQDYIKMTPSAAKIHQLLGHGAPIINDHIALRTFNIAKVNLSVLAKHFTSIGYVDSGDYKFEQKKLIAKHFEHPDPKQPKVFISELLVEEFSPEVQKSIHGLIDQVDIAATTADNFIYSGRHWDVDKATYQALLAESEYAAWVAALGYRANHFTVSINDLPEFERIEDVNQALKQAGFVLNSSGGEVKGSPEVLLEQSSTMADKVVVNFTDGDVEIPSCFYEFARRYPMANGQLYTGFVAASADKIFESTNAMM | not failed |
| MHTFTASSSLGASADALFTWHSRPGAFERLTPPWAPVRLQSFEGIEAGDRAVLRIGPGPLAVRWVAEHYGVEPGRQFCDRQVQGPFSHWEHTHRFTPADDDTGGATLTDRIEYEPPGGALGRQAAPWLEAELRRQFAYRHRITRRDLSLHQQYNPDDRSLTIAVSGASGLVGSSLVPFLTTGGHTVKRLTRSGPTGADEILWDPRTDRVEADKLEGIDAVIHLAGENVFGPWTPAKKQRIYSSRADGTRLLAEALAGLDDPPEVLVSSSAVGYYGDHGADRITEESAPRDAGFLGEVCEAWEAAAEPAAAAGIRTVQMRTGIVLTPAGGALRLMLPAFWLGLGGRVGGRHQYFPWITLDDVIGGIYHALWTDALEGPVNLTAPRPVTMQAYTDTLADVLHRPAFLNVPSSVVRTVGGEMADEMLLTSARAVPQRLQDTGYDFGASALEDGLRHVLGRTAD | failed |
| MHTISLKRILIYIVLLVTSFALLVGFTVNIVSQVAQYQESLHDQALSYSRIVAGNAASSLVFNDNANEKQRLSSLENTSFIQHVHVYKMDETSNELTFFSSYNKKGLPPIPARFAKLDKLTTPQTNDNYIEVSQPVVLDDEVIGYVYLRGSLEQARLFMWRSIGIASVVFVLTLLLCWLITLRLRKTIVTPLDSVVDVISQVARDKNYSLRLAPSKLVEFDMMAHAFNTMLDRVQQHISRQRRAEEEASQLNTELERQVTQRTQALKESNSELLKTLEQLHQYQGQLVESEKMASLGDMVAGIAHEVNTPIGLSVTASTLLQDKLTIMQEKFDEKRISTSEFERFLSDCDENLQIIYRNLGRAADLVTSFKQVAVDQSSEIDRDIHIPSFMNDVLISVKPRRLDPEKFPIRISCPEGLTVRAKAGPLNQVLINLIVNSMIHAFEGYSSGRVDISFTMVGDDKLEMVYTDNGKGVPSDINRKIFDPFVTTKRGSGGSGLGLHLVYNLVTQVLGGNIHFFSEEKNGVEFIVRFPVTLVSNA | failed |
| MHTPTAVLRPADFLAPIVAALISVLVNYGGTFVLVFQAAELAGLSAAQTTSWVWAVSIGVGVTGIALSWRYREPIITAWSTPGVAFLATVMPFTPYGEVIGAYLAAALGFVVLGLSGAFEKLVRMIPAGIAAGLLAGILLQFGINAFGGASADPLLVIALLVSYALLKRYTSRFAVVGILVIGLGLLAAQQRVDFAALHLSLAAPVFEMPRFSLHAMLGVALPLFVITLTGQYMPGMLVLRNDGFKTSANPILVATGLGSLVMAPFGAHTFNVAAITAAICTGRDAHEDPRKRYIAGLACGVFYILVGLFGVTLATLFMVLPKTFITTLAGLALLGTIGGSLASAMADARTRETALITFLATAANVTLLGVGGAFWGLVAGLAAHGLIHFRQPEPAAARPALLSPTSQDTR | failed |
| MHTSVQHAKTCLAVTSVSPIYVFGKTTFVSELIEQAGGKNCVETIQSAYPTVDVEYILRANPDVFIFNSTDQQKLFFETYPLLKQCKGYITNQLFVIDDSIMSRPGIRLPILKDSLVSILSKLEHHHHHH | failed |
| MHVLNILWVVFGIGLMLVLNLKFKINSMVALLVAALSVGMLAGMDLMSLLHTMKAGFGNTLGELAIIVVFGAVIGKLMVDSGAAHQIAHTLLARLGLRYVQLSVIIIGLIFGLAMFYEVAFIMLAPLVIVIAAEAKIPFLKLAIPAVAAATTAHSLFPPQPGPVALVNAYGADMGMVYIYGVLVTIPSVICAGLILPKFLGNLERPTPSFLKADQPVDMNNLPSFGVSILVPLIPAIIMISTTIANIWLVKDTPAWEVVNFIGSSPIAMFIAMVVAFVLFGTARGHDMQWVMNAFESAVKSIAMVILIIGAGGVLKQTIIDTGIGDTIGMLMSHGNISPYIMAWLITVLIRLATGQGVVSAMTAAGIISAAILDPATGQLVGVNPALLVLATAAGSNTLTHINDASFWLFKGYFDLSVKDTLKTWGLLELVNSVVGLIIVLIISMVA | failed |
| MHYQPKQDLLNDRIILVTGASDGIGREAAMTYARYGATVILLGRNEEKLRQVASHINEETGRQPQWFILDLLTCTSENCQQLAQRIAVNYPRLDGVLHNAGLLGDVCPMSEQNPQVWQDVMQVNVNATFMLTQALLPLLLKSDAGSLVFTSSSVGRQGRANWGAYAASKFATEGMMQVLADEYQQRLRVNCINPGGTRTAMRASAFPTEDPQKLKTPADIMPLYLWLMGDDSRRKTGMTFDAQPGRKPGISQ | failed |
| MIAAPTQLAIMPFPNIDPIALSIGPLAIHWYGIAYVAGIMLGWFYARRLARTDRLWPNDTSPISAQHLDDFILWAAGGIVLGGRIGYILFYDMAAVAANPIRAIEIWNGGMSFHGGLIGTTIAMILFARRNGIPVWSMFDIIAAVAPIGLLFGRIANFINGELWGRIADVPWAVVFPTGGPFARHPSQLYEAGLEGLVLVVLLAIAIYVFKALKTPGTVTGIFVCGYALSRIFVEFFREPDAQIGYLAGNWLTMGMVLSTPMFLLGLWAVLRARSATKSA | not failed |
| MIAITLLVVIDQVALSQTFPILTIIYALATILPAWGVLVRRLHDIGRSGWWMLISCVPLVGGIILFVFTVMDSQQGDNQFGASPKAAL | failed |
| MIALAASSLGNTPIASFNRHFRFRLHPRNPLIQAAVSPSSSSSSPTASSGFDLSSLESAINKKDSNGVKEALDKLSEEGWAKKWSSQPYLSRRTTSLRELTTLGIKNAETLAIPSVRNDAAFLFTVVGSTGFIAVLAGQLPGDWGFFVPYLVGSISLVVLAVGSVSPGLLQAAISGFSTFFPDYQERIAAHEAAHFLGTLEKFKSFDSKVAYLIGLPILGYSLDIGKEHVNLIDERLAKLIYSGKLDSKELDRLAAVAMAGLAAEGLKYDKVIGQSADLFSLQRFINRSQPKISNEQQQNLTRWAVLYSASLLKNNKTIHEALMAAMSKNASVLECIQTIETAS | failed |
| MIAQQFNRARHILRHNLVRPFYQPKFYLESGKLAGFEALLRWYDEDNQIQLPKLIINAFEDYSLASRLSEKMQLNIFKDMASWINQGLQLVPVSINAAPVEFLKDNYAELLLERLNQFEIPYHLIEIEITEHLLDDQGKNFISRALAKLKQNGIRIALDDFGTGHSSLTRLANLPVDCLKIDCDFVQRMEQEKFISALVQSVILMSNNLGIDVVAEGIESQEQLELLKQQGCEVGQGFLFSQALAPENARALLS | failed |
| MICLEKVEDIPRLQELFAQILIVHHQARSDVLKVKGSKFTDKELEGVIGDANKPVFVYEDEAGTILCHLFLIIKEVSENDGPQKPIKTLFIDDLCVEEKARGQKLGEKLYQFALDYATEQECYNATLHVWNDNQGTLDFYEHLGVKPRYTEMKTVLKLEHHHHHH | failed |
| MIDAQMSERFPARINILAVNSPGSLAEITQVISANDANIQNLSFIRTAPDFTEIMIDLEVWDLKHLNRIFSQLKKAGSVSTVRRGHGLEHHHHHH | failed |
| MIDCAIIGGGPAGLSAGLYATRGGVKNAVLFEKGMPGGQITGSSEIENYPGVKEVVSGLDFMQPWQEQCFRFGLKHEMTAVQRVSKKDSHFVILAEDGKTFEAKSVIIATGGSPKRTGIKGESEYWGKGVSTCATCDGFFYKNKEVAVLGGGDTAVEEAIYLANICKKVYLIHRRDGFRCAPITLEHAKNNDKIEFLTPYVVEEIKGDASGVSSLSIKNTATNEKRELVVPGFFIFVGYDVNNAVLKQEDNSMLCKCDEYGSIVVDFSMKTNVQGLFAAGDIRIFAPKQVVCAASDGATAALSVISYLEHH | failed |
| MIDEKFLIESNELVESSKIVMVGTNGENGYPNIKAMMRLKHDGLKKFWLSTNTSTRMVERLKKNNKICLYFVDDNKFAGLMLVGTIEILHDRASKEMLWTDGCEIYYPLGIDDPDYTALCFTAEWGNYYRHLKNITFKIDEIYNY | not failed |
| MIDIHSHIVFDVDDGPKTLEESLSLIEESYRQGVRIIVSTSHRRKGMFETPEDIIFKNFSIVKHEAEKRFEHLQILYGGELYYTSDMLEKLKLKQIPTLNNTKFALIEFSMQTSWKDIHTALSNVLMLGITPVVAHIERYNALENQKERVKEIINMGCYTQINSSHILKQKLFNDKHKRFKKRARYFLEENLVHFVASDMHNLDVRPPFLAEAYKIICRDFGKERANQLFIENAQSILKNHYI | failed |
| MIDLNEALAKDRWIGRLASHLDGFEALLDGQGYAKTTVQQKIKLLAGFSAWVERQDVPLSLLGEEDADLFLTELGLRPRRGDAWTIRQLVRYLRDTGGVPVLLPEVDTSAKGKLIDAFGEFLRKERGLSASTLTNYLPIIRGFLDEQFGGKDPGFDHLRVGDVHRFIVRRAQAGSLGRAKLAVTALRSFLRFLQQRGLLATDLAVAVPGIAGWRLAHLPKALRAEQVERLLASCDRRTPAGRRDYAVLMLLARLGLRGGEVSALTLDDLDWDCGEIVVHGKGQRLARLPLPADVGAALVDYLRQDRPACSTRRVFIRTRAPRRGFVSQSTICCIVRRALKRAGLTPAFKGAHLLRHSLATDLLRRGASLVEIGQLLRHSQPNTTQIYAKVDIAALRAIALPWPGVAS | failed |
| MIDSQFQFTVLTPTYNRAVTLHRVFQSLQRQTCRDFEWVVVDDGSTDNTHEVVRAWQAQADFPIRYVWQHNQHKKTAFNRGVREARGMLVVGLDSDDEIPPDALAILKDAWEGIPADRRETYVAVTGLCARPDGSIVGDRFPQDVFDSTAVDMYFRYRVQGEKFGAMRADVLRRFPFPEDVAGFVPESLVWWAISRAGYLSRFINRVVRVYHDTPGGLSQGGVSLSSNIQGLYLLAWDMLQHHLDWFRYRPREFIMAAARYTRFRLHLDNSGLPTAVQAYRLTQPSARLLVLLMWPLGYLLYRRDRRRGVA | failed |
| MIDTFERTGPLMEASSYPAWAQQLINDCSPAKARVVEHELYQQMRDAKLSPQIMRQYLIGGWPVVEQFAVYMAKNLTKTRFGRHPGEDMARRWLMRNIRVELNHADYWVNWCAAHDVTLEDLHDQRVAPELHALSHWCWQTSSSDSLAVAMAATNYAIEGATGEWSAVVCSTGVYAEAFAEETRKKSMKWLKMHAQYDDAHPWEALEIICTLVGNKPSLQLQAELRQAVTKSYDYMYLFLERCIQLDKVKSPRGRVAALEM | not failed |
| MIDVLVQLKSEELILKQRVITAVVALIIFIPIVFLGGTLIEIAALALAVVAMSEVLIMKRILLVTPEAIISILGTLFLVAPKSWMHDLPSQINTPFVSLIFAIALMVRVVFSKNRFNFDDAGVLTLTMLYIGFGFNMFVQARTVGLGMLMYLLLTVWSTDSGAYLVGRKIGKTKLAPQISPNKTWEGSIGGTIVAVIVGIIFSVTGLIHYGILATILMTLFLSIAGQLGDLVESSLKRYYGVKDSGRILPGHGGILDRFDSLLLVLPMAYLLGLL | failed |
| MIEEEAIVTQVEEHAIWVEKFRKSACGSCAGGCSTSLVARLLGGKPLRLRIATEARVAPGDRVIIGVEEGALLAGSFRMYLFPLFSLIGGALLGKLLAAQGLSATAEAGSIAGGLVGLGLTLVLLKYCPSLQRQNLHPVFIRRISR | failed |

Source: a protein production outcome set (Wang et al. 2014)
